According to patent US5854216A, “Marker for growth hormone-releasing factor receptors” (Universite de Montreal, priority 1996, dated 1998):
Where two headings read alike, the source gives them in different places. Blank lines part the entries; values can stand above or below the molecule they belong to. Square brackets hold non-standard residues; d marks the D form. Ends that are not written are not given here. Peptide text beside a SMILES is read from it. * marks the point of attachment. FITC = O=C1OC2(c3ccc(O)cc3Oc3cc(O)ccc32)c2ccc(NC(=S)*)cc21

Key:
[1] = target: T1, GRF receptor (adenylate cyclase activity in rat adenopituitary) (Rattus norvegicus, UniProt Q02644); assay: Adenylate cyclase assay on anterior pituitary homogenates (cAMP by HPLC); assay type: biochemical; details: Table 12; 50% of maximal cAMP accumulation induced by 1 μM hGRF(1-29)NH2; mean±SD of 2 or mean±SE of 3 to 6 experiments, 10 for hGRF(1-29)NH2
T1 construct: from tissue; host or cells: rat anterior pituitary homogenate
T1 sequence (Q02644 23-423 isoform Q02644-2 limits assumed): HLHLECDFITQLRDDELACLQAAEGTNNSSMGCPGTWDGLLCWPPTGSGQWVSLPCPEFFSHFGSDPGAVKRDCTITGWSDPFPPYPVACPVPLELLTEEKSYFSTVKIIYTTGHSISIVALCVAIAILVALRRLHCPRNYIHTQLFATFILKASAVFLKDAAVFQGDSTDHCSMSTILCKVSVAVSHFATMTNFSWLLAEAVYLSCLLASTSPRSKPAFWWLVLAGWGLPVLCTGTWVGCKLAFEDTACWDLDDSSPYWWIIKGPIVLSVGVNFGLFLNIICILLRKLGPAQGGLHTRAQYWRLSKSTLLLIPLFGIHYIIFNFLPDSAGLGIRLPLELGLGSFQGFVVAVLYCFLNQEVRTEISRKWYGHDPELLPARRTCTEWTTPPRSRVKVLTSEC
Description: The adenylate cyclase activity Nε-CF-[Lys^31 ]hGRF was performed on anterior pituitary homogenates as previously described (Lefrangois L. and Gaudreau P., J. Chromatogr., 1993, 619:116-120). Briefly, anterior pituitaries (pit.) were dissected out, rinsed and homogenized for 8 sec with a Micro Ultrasonic Cell Disrupter™, in ice-cold 20 mM Tris-HCl buffer (pH 7.5) containing 2 mM MgCl2 and 250 mM sucrose (1 pit./0.5 ml).
Samples of anterior pituitary homogenates (30-40 μg protein) were incubated in 1.5 ml Eppendorf™ tubes with 30 mM Tris-HCl, 5 mM MgCl2, 0.5 mM EGTA, containing 0.5 mM ATP, 1 mM IBMX, 10 μM GTP and an ATP regenerating system consisting of 2 mM creatine phosphate, 0.1 mg/ml creatine kinase and, 0.1 mg/ml myokinase in a final volume of 120 μl. Incubations were initiated by adding 20 μl of the homogenate to the reaction mixture which had previously been equilibrated at 37° C. for 2 min. The reactions were carried out for 8 min at 37° C. and stopped by heating the samples in boiling water for 4 min. Samples were centrifuged (12000 g, 5 min, 4° C.) and supernatants were filtered through 0.45 μm Millex HV4 ™ filters and transferred to autosampler vials for HPLC quantification of cAMP.

[2] = target: T2, GRF receptors ([^125 I-Tyr^10 ]hGRF(1-44)NH2 binding sites in rat adenopituitary) (Rattus norvegicus, UniProt Q02644); assay: Competitive binding assay with [^125 I-Tyr^10 ]hGRF(1-44)NH2 on anterior pituitary homogenates; details: Table 11; mean±SD of 2 or mean±SE of 3 experiments for analogues, mean±SE of 11 for hGRF(1-29)NH2
T2 construct: from tissue; host or cells: rat anterior pituitary homogenate
T2 sequence (Q02644 23-423 isoform Q02644-2 limits assumed): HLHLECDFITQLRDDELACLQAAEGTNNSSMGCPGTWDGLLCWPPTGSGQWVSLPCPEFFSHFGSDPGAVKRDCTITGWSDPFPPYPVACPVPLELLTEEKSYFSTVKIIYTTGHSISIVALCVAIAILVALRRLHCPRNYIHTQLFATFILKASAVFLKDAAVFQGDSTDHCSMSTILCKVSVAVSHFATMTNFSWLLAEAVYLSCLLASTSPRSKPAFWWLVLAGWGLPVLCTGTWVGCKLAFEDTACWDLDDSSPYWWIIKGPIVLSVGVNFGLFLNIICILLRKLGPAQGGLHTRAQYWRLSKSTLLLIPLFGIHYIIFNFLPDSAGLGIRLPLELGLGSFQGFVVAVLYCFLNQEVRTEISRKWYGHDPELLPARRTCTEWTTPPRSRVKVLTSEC
Outline: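 Rat anterior pituitary homogenates (70 to 75 μg protein) in 50 mM Tris-HCl pH 7.4 with 5 mM EDTA, 5 mM MgCl2, 0.42% BSA were competed with 35-50 pM radioligand against analogues at 0-1000 nM. Non-specific binding defined with 2.4 μM rGRF(1-29)NH2; 60 min at 23° C, stopped by centrifugation, pellet gamma-counted. hGRF(1-29)NH2 run in each experiment as reference.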

[3] = target: T3, GRF receptor of rat adenopituitary (rat, UniProt Q02644-2); assay: displacement of 125I-Tyr10 hGRF(1-44)NH2 from rat anterior pituitary homogenate
T3 sequence: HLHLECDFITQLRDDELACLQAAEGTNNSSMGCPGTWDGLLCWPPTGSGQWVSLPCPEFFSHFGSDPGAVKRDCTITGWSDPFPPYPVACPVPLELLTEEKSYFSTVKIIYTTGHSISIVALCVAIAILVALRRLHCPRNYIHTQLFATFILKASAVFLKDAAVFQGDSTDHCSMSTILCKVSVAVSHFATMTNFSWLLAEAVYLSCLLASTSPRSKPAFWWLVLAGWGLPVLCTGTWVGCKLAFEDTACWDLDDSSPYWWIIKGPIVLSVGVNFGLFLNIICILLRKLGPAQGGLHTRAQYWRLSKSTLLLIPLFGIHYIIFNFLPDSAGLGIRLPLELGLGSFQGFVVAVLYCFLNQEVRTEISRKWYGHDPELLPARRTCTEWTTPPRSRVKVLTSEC

[4] = target: T3, GRF receptor of rat adenopituitary
[5] = target: T3, GRF receptor of rat adenopituitary; assay: displacement of 125I-Tyr10 hGRF(1-44)NH2 from rat anterior pituitary homogenate; remark: listed apart in the source
Description: The binding of [^125I-Tyr^10]hGRF(1–44)NH_2 was performed on anterior pituitary homogenates as previously described (Gaudreau P. et al., J. Biol. Chem., 1992, 35:1864–1869). Briefly, anterior pituitaries (pit.) were dissected out, rinsed and homogenized for 8 sec with a Micro Ultrasonic Cell Disrupter™, in ice-cold 50 mM Tris-HCl buffer, pH 7.4, containing 5 mM MgCl_2 and 5 mM EDTA (1 pit./0.5 ml). These homogenates were used immediately. Competition studies were performed using 35–50 pM [^125I-Tyr^10]hGRF(1–44)NH_2 as radio-ligand, 50 µl of homogenate (70 to 75 µg of protein), and increasing concentrations of Nε-CF-[Lys^31]hGRF or other GRF analogues (0–1000 nM) or with 2.4 µM rGRF(1–29)NH_2 for determination of non-specific binding, in a total volume of 300 µl of Tris-HCl buffer, pH 7.4, containing 5 mM EDTA, 5 mM MgCl_2 and 0.42% BSA. Incubations were carried out at 23° C. for 60 min and stopped by centrifugation (12,000 g, 5 min, at 4° C.). The radioactivity content in the pellet was measured by gamma counting. The affinity of hGRF(1–29)NH_2 was tested in each experiment to assess the validity of the assay and determine the relative affinity of the analogues.
75 to 97% of their initial concentration are recovered at the end of the binding assay (Gaudreau P. et al., J. Biol. Chem., 1992, 35:1864–1869). The Ligand computerized program was used to analyse competition curves of all the GRF analogues reported in Tables 4, 7 and 11, and to determine their IC$50$ and Hill coefficient. The Hill values indicate that all these peptides bind to the high and low affinity GRF binding sites found in the anterior pituitary.

- IC50 [1]: 2.6 ± 0.7 nM
- IC50 [2]: 0.25 ± 0.07 nM
Molecule: YADAIFTASYRKVLAQLSARKALQDIMSR-NH2 [Ala^8, Ala^15, Ala^22]

- Relative affinity (%) against hGRF(1-29)NH2 [3]: 1040%
- adenylate cyclase activity: EC50 of cAMP accumulation (column head prints IC50) [4]: 2.63 nM
- adenylate cyclase activity: Relative activity (%) against hGRF(1-29)NH2 [4]: 1400%
Molecule: Lys^22 ! hGRF(1-29)NH2 (from UniProt P01286) (peptide)

- IC50 [1]: 136 ± 50 nM
- IC50 [2]: 31.6 ± 11.7 nM
Molecule: CC[C@H](C)[C@H](NC(=O)[C@H](C)NC(=O)[C@H](CC(=O)O)NC(=O)[C@@H](C)NC(=O)[C@@H](N)Cc1ccc(O)cc1)C(=O)N[C@@H](Cc1ccccc1)C(=O)N[C@H](C(=O)N[C@@H](CC(N)=O)C(=O)N[C@@H](CO)C(=O)N[C@H](Cc1ccc(O)cc1)C(=O)N[C@@H](CCCNC(=N)N)C(=O)N[C@@H](CCCCN)C(=O)N[C@H](C(=O)N[C@@H](CC(C)C)C(=O)N[C@H](C)C(=O)N[C@@H](CCC(N)=O)C(=O)N[C@@H](CC(C)C)C(=O)N[C@@H](CO)C(=O)N[C@@H](C)C(=O)N[C@@H](CCCNC(=N)N)C(=O)N[C@H](CCCCN)C(=O)N[C@@H](CC(C)C)C(=O)N[C@@H](CC(C)C)C(=O)N[C@@H](CCC(N)=O)C(=O)N[C@@H](CC(=O)O)C(=O)N[C@H](C(=O)N[C@@H](CCSC)C(=O)N[C@@H](CO)C(=O)N[C@@H](CCCNC(=N)N)C(N)=O)[C@@H](C)CC)C(C)C)[C@@H](C)O [D-Ala^2, D-Tyr^10, D-Ala^15, D-Lys^21] (H-Y[dA]DAIFTNS[dY]RKVL[dA]QLSAR[dK]LLQDIMSR-NH2)

- Relative affinity (%) against hGRF(1-29)NH2 [3]: 49%
- adenylate cyclase activity: Relative activity (%) against hGRF(1-29)NH2 [4]: 55%
Molecule: D-Ans^8,D-Leu^22 ! hGRF(1-29)NH2 (from UniProt P01286) (peptide)

- Relative affinity (%) against hGRF(1-29)NH2 [3]: 774%
- adenylate cyclase activity: EC50 of cAMP accumulation (column head prints IC50) [4]: 2.88 nM
- adenylate cyclase activity: Relative activity (%) against hGRF(1-29)NH2 [4]: 1270%
Molecule: Ala^8,Ala^9,Ala^15,Ala^22 ! hGRF(1-29)NH2 (from UniProt P01286) (peptide)

- IC50 [5]: 14 nM
- Relative affinity (%) against hGRF(1-29)NH2 [5]: 19%
Molecule: {FITC}-YADAIFTNSYRKVLGQLSARKLLQDIMSR-NH2 [Nα-fluorescein-5-thiocarbamyl!hGRF(1-29)NH2]

- Relative affinity (%) against hGRF(1-29)NH2 [5]: 19%
Molecule: {FITC}-YADAIFTNSYRKVLGQLSARKLLQDIMSRQQGESNQERGARARL-NH2 [Nα-fluorescein-5-thiocarbamyl!hGRF(1-44)NH2]
